Test results: patent US20210206813

What was measured:
[1] = target: MidT substrate domain fused to the omega subunit of RNA polymerase
[2] = target: p130cas substrate domain fused to the omega subunit of RNA polymerase

Row | Protein | difference in luminescence between systems containing PTP1B or PTP1B (C215S) [1] | luminescence (LuxAB), bacterial two-hybrid system with induced Src [2] | luminescence (LuxAB), bacterial two-hybrid system with induced Src [1]
1 | protein tyrosine phosphatase 1B (PTP1B) (protein) MEMEKEFEQIDKSGSWAAIYQDIRHEASDFPCRVAKLPKNKNRNRYRDVSPFDHSRIKLHQEDNDYINASLIKMEEAQRSYILTQGPLPNTCGHFWEMVWEQKSRGVVMLNRVMEKGSLKCAQYWPQKEEKEMIFEDTNLKLTLISEDIKSYYTVRQLELENLTTQETREILHFHYTTWPDFGVPESPASFLNFLFKVRESGSLSPEHGPVVVHSSAGIGRSGTFCLADTCLLLMDKRKDPSSVDIKKVLLEMRKFRMGLIQTADQLRFSYLAVIEGAKFIMGDSSVQDQWKELSHEDLEPPPEHIPPPPRPPKRILEPHN | The difference in luminescence between systems containing PTP1B or PTP1B (C215S) was greatest for MidT |  | 
2 | Src kinase (protein) MSKPQTQGLAKDAWEIPRESLRLEVKLGQGCFGEVWMGTWNGTTRVAIKTLKPGTMSPEAFLQEAQVMKKLRHEKLVQLYAVVSEEPIYIVTEYMSKGSLLDFLKGETGKYLRLPQLVDMAAQIASGMAYVERMNYVHRDLRAANILVGENLVCKVADFGLARLIEDNEYTARQGAKFPIKWTAPEAALYGRFTIKSDVWSFGILLTELTTKGRVPYPGMVNREVLDQVERGYRMPCPPECPESLHDLMCQCWRKEPEERPTFEYLQAFLEDYFTSTEPQYQPGENL |  | luminescence increased most prominently for p130cas and MidT | luminescence increased most prominently for p130cas and MidT
